Biological target: SARS-CoV-2 Beta S蛋白 (假病毒) (SARS-CoV-2 Beta, UniProt P0DTC2 14-1273)
Assay: cell-based or functional assay

B1: 抗体Amb1 (antibody, V domains shown)
VH: EVQLLESGTEVKKPGSSVKVSCKASGGTFSSYAISWVRQAPGQGLEWMGGIIPILGIANYAQKFQGRVTITADKSTSTAYMELSSLRSEDTAVYYCARERGYSGYGAAYYFDYWGQGTLVTVSS
VL: QSVLTQAPSVSGAPGQSVTISCTGSSSNIGAGYDVHWYQQLPGTAPKLLIYGNNNRPSGVPDRFSGSKSGTSASLAITGLQAEDEADYYCQSYDSSLSKGVFGGGTKLTVL
假病毒中和 IC50: 0.0266 µg/mL

B2: 抗体Amb2 (antibody, V domains shown)
VH: EVQLLESGPGLVKPSETLSLTCTVSGGSISNSSYYWGWIRQPPGKGLEWIGSIYYSGSTYYNPSLKSRVTISVDTSKNQFSLKLSSVTAADTGVYYCASWLYGDPISFDYWGQGTLVTVSS
VL: not shown
假病毒中和 IC50: 0.0452 µg/mL

— CN115043938A (DUAN LIANGWEI; JIANG ZHIHUA; WANG HUI, dated 2022)
